From the DeepSol protein solubility set

Assay: soluble on expression in E. coli; label from the status in PepcDB or PDB records

Sequence | soluble on expression in E. coli
MGSDKIHHHHHHMVWRDLLEVIYKLDPKPGLGLEIAKHVQPKHLGIIAYLALSCDNLGEALIRYHDFHRLIYDGSPLVVELQGRYGSIRWEATELHPTQLTDEIAIALVIQFLRLFMSHEDVQLHEVRFLNAAPKNIRVYEQYFQCPVRFSQPRTELLIPITEIHKPLSSADHTLQQLLVQQAQALLEQLPNSTQLDQRLQHSILTGLQKNQYQIEYIAAQLGLSVRQLQRHLQQQSTTFQERVQQVRFMLATEYLKDPHLSLQEIALLLCYSEQSAFQRAFKHWTKQTPQQWRDQFLDKE | not soluble
MIPGEYRLREEPIVCNRQKSATKLTVVNRGDRPVQVGSHFHFFEVNSFLEFDRQAAYGKHLNIPAGTAVRFEPGDAKQVELVPFSGERRVYGLNNMVNGPLDGNGKGGVRE | soluble
MGSDKIHHHHHHMAGTCGLTLGKYAPLHKGHQLVIETALAEMDEVLVMIYECPEVTAIPLTVRANWLRKIYPQILVIEAWDGPTEVGDTSEIKKMHEDYILKQLESKKITHFYCSEFYGEHVSQALGAVNRLVDCDRKTFPISGTQVRTDTYAMREYLHPDVYRDLIANIVFLGAPSTGKTTIASQLAKEYNTVWMPEYGREYWEKNQINRRLSLLQLVEIAKGHLEREEALLLQANQYLFTDTNALTTYQFSLYYHKTVAPELVQLAHQAMSRYDLVFLCDLDIPYDDTWDRSGEANRSIFQKQIESDLIVRKIPFFRLSGDLMTRISIVKKVLYYYQKYASLGELFFNKLIL | not soluble
MQVIHQYSNKGGKYQNRYDVSILVNGLPLVHVELKKRGVAIREAFNQIKRYKRDSFSAEDGLFDFVQIFVISNGTSSKYYSNTTRIAQLEKNHKADTFEFTNYWADSKNHNIEDLMDFAKAFFAKRSLLNVLTCYCVFTSEEVLLVMRPYQIVAAERILEKIKTAQNSKTKNQSKGYIWHTTGSGKTLTSFKSATLAKELESVSKVLFVVDRKDLDYQTMKEYDKFQKDCANSNTSTKILKEQLEDSNAKIIITTIQKLDKFVKSHKGHAIFNEEVVMIFDECHRSQLGSMHQAITKAFKKYHLFGFTGTPIFAANCDKNNPLGTTEQKFGKCLHQYTIIDAIRDKNVLPFRVEYHNTIKAKEDIKDNKVRAVDEKNALLDTRRIKEITKCILERFNQATKNKKFNSILACSSIEALKKYYQAFKEEKHDLKIAAIFSYSANEEIDTLEDENNESACRLDKSSRDFLEGAIADYNGMFGVSFDTSDQKFQSYYKDLSQKMKERKIDLLMVVNMFLTGFDATRLNTLWVDKNLKYHGLIQAFSRANRILDSVKTHGNIVCFRDLEQDLNDALMLFGNKDAQSIALLRKYEDYLKGYTDNNKEYEGYEGLIKRLLTEFPLKEPIVSESQKKDFIKLFGKILKLENILNSFENFKKDDYINPRDFQDYQSKYLDFYDAMRSEKGKDKEEINDDLIFEIELIKQVEVNIDYILNLIEEFAKEHGVEIQGVKTKIEPIINSSIELRNKKDLIMDFIDKYNKDQEVHAHFQDYIHQKREEEFQNIIEENRLNEEKAYSFMQHAFKGGEISFSGTEFPKIIEEKPSMFGKNSRYQEVKEKVAASLSRFFHRFCDLTSAIFKKNEVKKDEVNEK | not soluble
MVRIDAKGLHYKKLNDLIWEAVENGEEEIVLDNVCGQRYIGAGIRKKVKIEINGVPGNDLGVFMDGPEIIVNGNAQDGVGNTMNAGKIVVHGHAGDIIGYAMRGGHIYIKRNAGYRVGIHMKAYKENYPVVVIGGFARDFLGEYMAGGLLIVLGLEKDEDGNIAGNYVGTGMHGGEIFLRGTVEEHKLGKEVKIFQPTEEDINRIKPYVEEFCRLFDYDSEEILNEEFIILKPYTHRPYGRLYAY | not soluble
ALIIVSGSEGRIEKAQNIAQLLSSRGYICLAIAYFGLEGLPKHLKRIPLECLVEAKSYLRQYPQVDSERIGIYGRSKGAELVLAEESIFNDVQCLVLNSPSDVVDEGIIGKWNSHTSSWTHLQKELPYQKFRFRDYLFSKLFRKDFPKDCSARIDIGQMHSPILLLESTVDEIWDASSAIDDIVSHYKGHYITFKKYHETGHMLTVAYQPNHRYRKDWHLLMKESEDSWLATIHFFDRHLK | not soluble
MQNNNEFKIGNRSVGYNHEPLIICEIGINHEGSLKTAFEMVDAAYNAGAEVVKHQTHIVEDEMSDEAKQVIPGNADVSIYEIMERCALNEEDEIKLKEYVESKGMIFISTLFSRAAALRLQRMDIPAYKIGSGECNNYPLIKLVASFGKPIILSTGMNSIESIKKSVEIIREAGVPYALLHCTNIYPTPYEDVRLGGMNDLSEAFPDAIIGLSDHTLDNYACLGAVALGGSILERHFTDRMDRPGPDIVCSMNPDTFKELKQGAHALKLARGGKKDTIIAGEKPTKDFAFASVVADKDIKKGELLSGDNLWVKRPGNGDFSVNEYETLFGKVAACNIRKGAQIKKTDIE | soluble
